Measurements taken from paper PMC4824110.

Molecular target: T1, Rrp41 D182A (catalytically inactive);Rrp42 (Sulfolobus solfataricus;Sulfolobus …, UniProt Q9UXC2;Q9UXC0 ;, D182A|)
T1 sequence 1: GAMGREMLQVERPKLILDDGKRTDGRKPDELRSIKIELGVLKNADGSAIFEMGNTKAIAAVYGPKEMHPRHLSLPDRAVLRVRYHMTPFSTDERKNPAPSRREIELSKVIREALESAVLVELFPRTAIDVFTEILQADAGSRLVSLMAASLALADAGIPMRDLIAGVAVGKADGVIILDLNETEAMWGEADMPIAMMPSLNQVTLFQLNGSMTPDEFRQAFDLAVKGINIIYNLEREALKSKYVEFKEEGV
T1 sequence 2: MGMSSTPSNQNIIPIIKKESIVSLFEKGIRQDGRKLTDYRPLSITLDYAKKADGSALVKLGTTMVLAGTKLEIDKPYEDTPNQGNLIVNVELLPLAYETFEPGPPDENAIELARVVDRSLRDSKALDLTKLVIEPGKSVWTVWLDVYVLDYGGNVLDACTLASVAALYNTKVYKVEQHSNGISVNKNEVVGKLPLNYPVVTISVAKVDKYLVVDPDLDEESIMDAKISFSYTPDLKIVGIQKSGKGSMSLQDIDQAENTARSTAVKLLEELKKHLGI
Test: fluorescence anisotropy

B1: fluorescent 32A (FA RNA) (structured_RNA)
RNA: GCCCCCCCCGAAAGGGGGGGGAAAAAAAAAAAAAAAAAAAAAUAAAAAAAAAAAGCU
modifications: 4-thiouridine at position 43
  Kd: 11.7 ± 0.9 nM
